Series [1] is described as follows: Biological activity of insulins and insulin derivatives. The conditions noted are these: specific activity of the active compound used in the formulation.
The conditions of series [2]: unmodified hormone, background statement; region of maximum insolubility; cited from earlier work.
For series [3] the following is noted: based on the amount of protein; cited from earlier work.

For “Porcine proinsulin: porcine proinsulin, dissolved component of Example 2”, the “biological activity per mg” value in series [1] was 3.3 IU/mg.

In the case of insulin [reference compound], the isoelectric point in series [2] was 5.4.

In the case of “proinsulin: naturally occurring precursor of insulin, A and B chain linked by the C peptide”, the “inherent biological activity as fraction of the activity of insulin” value in series [3] is on record as “about 1/8”. Further, in series [2], the isoelectric point is reported as 5.4.

The record behind these values is patent US4608364A, “Pharmaceutical agent for the treatment of diabetes mellitus” (Hoechst Aktiengesellschaft, priority 1983, dated 1986).
